In assay [1] the target is T1, ERG_Y373A (purified recombinant ERG with Y373A) (UniProt P11308 1-479, limits assumed, biotinylated for OctetRED).
T1 construct: also called Y373A mutation
T1 sequence (looked up): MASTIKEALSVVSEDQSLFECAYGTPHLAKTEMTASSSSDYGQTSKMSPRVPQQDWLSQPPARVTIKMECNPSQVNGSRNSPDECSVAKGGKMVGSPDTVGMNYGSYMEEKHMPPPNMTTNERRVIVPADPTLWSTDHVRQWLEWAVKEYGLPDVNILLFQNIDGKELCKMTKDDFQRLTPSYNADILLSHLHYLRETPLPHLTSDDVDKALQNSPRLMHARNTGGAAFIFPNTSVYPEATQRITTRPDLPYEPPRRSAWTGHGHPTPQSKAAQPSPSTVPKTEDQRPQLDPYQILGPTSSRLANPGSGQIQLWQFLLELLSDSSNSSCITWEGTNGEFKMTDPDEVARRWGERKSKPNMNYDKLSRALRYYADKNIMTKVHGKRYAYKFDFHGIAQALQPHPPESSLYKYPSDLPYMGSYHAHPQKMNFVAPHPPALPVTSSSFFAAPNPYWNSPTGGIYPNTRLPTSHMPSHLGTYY
Briefly: pull-down of purified recombinant proteins with biotin peptide.

Assay [2] deals with T2, Halo-tagged ERG mutant Y373A (UniProt P11308 1-479).
T2 construct: mature; also called ERG (Y373A); negative control ERG (Y373A); not shown: Halo-tag at the N-terminus
T2 sequence (looked up): T1 sequence (looked up)
Briefly: pull-down of Halo-tagged proteins with biotin peptide.

Assay [3] concerns the target T3, Halo-tagged full-length Spi1 (UniProt P17947 1-270).
T3 construct: mature; not shown: Halo-tag at the N-terminus
The assay is described as above.

Where no end group is shown, it is not given here. The star is where a group is joined. Biotin = O=C1N[C@H]2[C@H](CS[C@H]2CCCCC(=O)*)N1

B1: biotinylated EIP1 peptide (Biotin-LPPYLFT) (peptide)
peptide: Biotin-LPPYLFT
notes: also called Biotin-EIP1; biotin-conjugated EIP1
With B1, the binding result in assay [1] is “no binding”.

B2: biotinylated EIP2 peptide (Biotin-LSFGSLP) (peptide)
peptide: Biotin-LSFGSLP
notes: also called biotin-EIP2
Regarding B2, the binding result in assay [2] and in assay [3] was “no binding” throughout.

The record behind these values is patent US20180273595A1 (REGENTS OF THE UNIVERSITY OF MICHIGAN, published 2018).
